Assay results reported in PMC2139825.

Target: bacterially expressed full-length chicken CRP1 (chicken) (UniProt P67966)
Assay: radioligand binding

Sequence of UniProt P67966 (P67966 whole entry): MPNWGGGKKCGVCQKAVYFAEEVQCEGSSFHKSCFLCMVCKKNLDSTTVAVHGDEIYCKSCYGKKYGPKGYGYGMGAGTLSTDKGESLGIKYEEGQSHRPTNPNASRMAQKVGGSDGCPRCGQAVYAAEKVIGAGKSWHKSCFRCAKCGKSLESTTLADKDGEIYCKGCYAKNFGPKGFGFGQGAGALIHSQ

“α-actinin (avian smooth muscle) (from UniProt P05094 1-893) (natural protein)” gave a Kd of 1800 nM and a cpm bound specifically (0.26 pmoles [125I]α-actinin in 120 μl, no competitor) of 3080 cpm.
